Experimental data from a protein production outcome set (Wang et al. 2014).

Assay: label from the status in PepcDB records
For “MVKTMAKKKAVKVLRKQKKRETLRRFTQKQNIGRACLTAQEFRLLQRMSHSSKALRNVGLYTMKQSYLNHNKMATVKEVDIAMQADMNYWGIQSNSLQAIRRALFTEVKSFFKALEKWKKNPEKFTGRPKFPNYSHSTDKRIIEIYQVPKVDENGFWMIPMSVAFRKKFGSIKIRMPKNLRNKNISYIEIVPKQKGRFFEVHYTYEMHVSQMKKQPMTTSNALGCDLGVDRLVSCVTNTGDAFLIDGKKLKSINQYFNKTIRNLQQKNVENGLSKRIVTNKIAALWHKRERQIHGYIAQTVGLLFKKVKEFDIDTIVVGYNAGWKQNSHMGKKNNQKFVQIPFHKLIAAIENKCIKEGIRFFKQEESYTSKASFLDKDPVPVWSKDDRTQYRFSGKRITRGLYQSKAGTCIHADINGALNTLQKSQVVELDGNLKVKTPILLEVQKRKAVASRIALEHHHHHH”, the protein production was “failed”.
For “MVKYAKTPKSFINIKDLGFALLETDELDGTIKYSNVTQTRGLQEISVETGGEIVNAYADGSIIESGTTDGEGKISMTMHAFPQEIRELIFNEIYNEAGVYSEERGKQNNYVAVWFKRERRDGSYQQVGLTKVMFADPNLEGKTAEEDWEFSSEESEGTAMHRIADGKRKILFDSSREGANVDSFFQELLNGAYDSKTEVDTGDSTTGESAAEALEHHHHHH”, the protein production was “failed”.
For “MVLEYVYCLLAFCLYFMAYCINPDCSQRENPDTSAVCQNCGTPLILQNRYRLRHFLRTDRGSYTEVFAIEDLVNRDQPKVLKSLKEVTPQLERLFQQEASILNTLRHPGLPIGEALFPLVLNTGRQLWCFVMEKIPGEDLQTWLSHHQYVTSYKTALDWLKQLTQILQFVHEEKFFHRDIKPANIMVCPDGKLVLIDFGAARKVTQTIINRESVTIVHSLGYTAPEQRDGHAVVQSDFYALGRTLIYLLTGIDPTGDRAQDLLNWSKYIQDPKTPKKFISLLQVMTDSHPYHRPPTAQAILEKIEKIDQHSHQWPKLLLSATCGVLLLFAGKSLYQEITLPRTCDNILNDYLSCGEESLTPSSFWGNSQPPPAKQLGMEQYRNRNFGAAVNFLETAFQQESDPETLIYLNNAKIHQQFPANQIYTIAVAVPLERRTDIGREILRGVAQAQTEALKKGRALRIIIADDSNREDSKTGNNARKIAQHLVKYRDLLAVLGHYSSEATKNSLPIYSQARVVLISATSTSQNLKDPFFFRTVPSDRIAAQKMVTYLLSALKQNQVAIFYSRGSEYAESLSQAVRESTKSLPLKVIDHQAAFNLASDRFNAITALNQAQTQGAKAIVLIPDAGVGLYNAIPNALRVIQSNINQVWIVAGDSLYSSDSFTSEKAFSSPEIKYTAWAVFWHPLNEINSTFVKEVQNLWKIDILSILSNTNITWRTATSYDATLVLSQAITQNPTRLGIKKTLSQPQFSVTGATGVIQFAGSDRQNGKITMVRVQRNCDDNGFFFIPSDRSLQCQ”, the protein production was “failed”.
With “MVLIALLIALSVERLYHSPAFLHWSFFLERWQHWSAARLTNEKWKSEPLQLVRLLVPALAVGFLVVLLDNLMVTFIVSILSLLLAMNCEPARKSYKAYLKAANRGDEQQVNEHQHALTEFAGQHQPKQLSDSLIWINYRQYIAVMFYFVLFGSFGALVYASLRYAEKQISEPESTKLWQQFMWFADWVPARLAGFGLLIVGHFSRAFPVWVKHSLNPQADPDKLLFNVASKAEDIPQHPDDRTEHIACQLRLMRRQQIFWVCVIAALTLTGWVN” the protein production was “failed”.
With “MVLKRKGLLIILDGLGDRPIKELNGLTPLEYANTPNMDKLAEIGILGQQDPIKPGQPAGSDTAHLSIFGYDPYETYRGRGFFEALGVGLDLSKDDLAFRVNFATLENGIITDRRAGRISTEEAHELARAIQEEVDIGVDFIFKGATGHRAVLVLKGMSRGYKVGDNDPHEAGKPPLKFSYEDEDSKKVAEILEEFVKKAQEVLEKHPINERRRKEGKPIANYLLIRGAGTYPNIPMKFTEQWKVKAAGVIAVALVKGVARAVGFDVYTPEGATGEYNTNEMAKAKKAVELLKDYDFVFLHFKPTDAAGHDNKPKLKAELIERADRMIGYILDHVDLEEVVIAITGDHSTPCEVMNHSGDPVPLLIAGGGVRTDDTKRFGEREAMKGGLGRIRGHDIVPIMMDLMNRSEKFGA” the protein production was “not failed”.
In the case of “MVLLEKLWDDVVAGPQPDRGLGRLRKITTQPINIRDIGEGSSSKVVMHRSLTMPAAVSPGTPTTPTTPTTPRKDNVWRSVFNPGSNLATRAIGSNIFDKPTHPNSPSVYDWLYSGDSRSQHR”, the protein production is reported as “failed”.
For “MVLLIVDGIIVAISAIAFSPDTVMYSILSLYVVSLTIDKMMVGLNSSRNLLIISQKSDQILNYITNGADRGATKIPVLGGHTGHSQNMIMTTLSTHEVPKVQEEIQKIDETAFIVIIPASTVMGRGFSLQKDYKSVPNDFINPL”, the protein production was “failed”.
With “MVMEYELRTPLVKDQILKLKVGDVVYITGEIFTARDEAHARALEWMEEGKELPFSFDKGVVYHCGPLVKKNDEWRVVSAGPTTSARMNPFTPKILEKVECMGIIGKGGMSEEVVEAMRGKAAYFAFTGGAGALAAMSIKKVKGVVWEDLGMPEAVWLLEVERFGPCIVAIDAHGNSLYRR” the protein production was “not failed”.
For “MVMMEQCAWPYIRSVRVRVGERTRAGGEFDLMGTTTRRNASAMKMVGALLALYRQAAGHTQRSLGERFVIGEQQIASIEQGRRPLKPDLAEQLDELLGTKGALSTALSKMPEVDLVPLWAEEFLDREREAIAISSYENQVLPGLLQTEAYAWAVFRSRVPFYDEDTIARLAAARIERQGILQGKEPPITCFVVWEPVVRAPIGGRTVWREQLQRLRACSELPGLMLQVLPQDRTSHAGLNGPFVLLETPEHQRLAYTENQRGSQLIADADEVAILTQKCAMLRSQALTPEDTRDLLDRLLGEQ”, the protein production was “failed”.
With “MVMMSKQLTAQAPVDPIVLGKMGSSYGIRGWLRVFSSTEDAESIFDYQPWFIQKAGQWQQVQLESWKHHNQDMIIKLKGVDDRDAANLLTNCEIVVDSSQLPQLEEGDYYWKDLMGCQVVTTEGYDLGKVVDMMETGSNDVLVIKANLKDAFGIKERLVPFLDGQVIKKVDLTTRSIEVDWDPGFLEHHHHHH” the protein production was “failed”.
In the case of “MVNFEEMTFENIMESMLDAVPATLDKREGSMIWNSLAPAASQIALLYTWLENAFELVFYDTAPDEFLDRAAAPYGVIRKPAVATQRIIKGIDENDNKIEIPEGSRFFVESENIYFKVTSSTILEQVVECEVAGTKGNADFSNDTILSLDNIYGLAKVEIGDILIPGSDEEELETFRKRFFTKIQKDAFSGNKNHYKLWAEEVLGVGKAKIYPLGYGEGTVKIVITDTNLHPASPTLVEQVRNYIDPLPQKGEGVAPIGAKVFIESAAWKTINISGQLVLKDGKSVNDVIEEITMDINKLFKSITFPEDELTSVKLAVISNIIFSAPSVLDNFNIKLNNEAANIILAENEVPQLGAFSFELILEHHHHHH”, the protein production is reported as “failed”.
With “MVNLGAMLFRGRGVKLSQQFAVIGLGRFGRGVCETLHGMGYEVLGSDNQERLVNQVLQDHIVDHAIQLDATDPQALKEAGIFEFETVIVAIGNHLDASIITTLNLKEAGVPKVIAKASSEVHKKLLERVGADRVVFPEYEAGCELARSLTRPAILDCLNLDPQKSIVEVKVPEAFHGRTVAEVELRSRYGLNLIALRFDDKFEINPSPSQKLHQGDIMVVIGDNNDIERFLRSQHVH” the protein production was “failed”.
In the case of “MVNPTIPDDLLAKIAKTVAHKCWWDLQPLLRSGRRGRDVVYRPDVLKGANIFSMCEDPDDYQVDGSHHPSGPQEEGRHRAFFKRCVDAGNPTTMYFEALCVLTHERDIKGAINLLRPHVPSQAHATLACAILYIIDGNDYMGAIFLNLFGRNHYPLGTEETRDLCEEFLEDLKKFRPPYNNTYGSTFSYPNSHGIKTPDCALLCYIVSGPFKNVCNCCYLWWCARRVSQML”, the protein production is reported as “failed”.
In the case of “MVNTRNIIRQFTPNWFTTIMGTGVVAIVLGHFSELHTLGAALWLINTCLFCVFCILYMLRWSLFPHEARQIFHHPSMSLFLGAIPMALATLINGLLMYGNTVFGQHLPQLALWLWYIDVVLVISIGWVVPYFMFSRQQHHLHSITAMWLLPIVAAEVAAATGGLLVAEFVHSTQAISILWLSYMLWGMSVLPAFAILSLLILRLALHKLPEKELAISSWLSIGPIGTGALAMMLLGQHAPDVLQSIGMQSFGIFLQQAAKLISLVLLGCGVWWLGIAMFASLHHLKHGIPFNLGWWGLTFPLGVFTLALSQLGQLLGWNAFDHIAVILSVILVGLWSCVAVKTIQGAYRGQLFFSPCLQQLQQQQKACAQSETA”, the protein production is reported as “failed”.
In the case of “MVNVDHDRFTTLVHELNQAKYEFHYKCAELVSNHEAAQPKKVLDEKKMDLEKLYEKVKEVMKKMVAFAENPKKEG”, the protein production is reported as “failed”.
In the case of “MVNYKEKLDEAIHLTQQKGFEQTRAEWLMLDVFQWTRTDFVVHMHDDMPKAMIMKFDLALQRMLLGEPIQYIVGFASFYGRTFDVNSNCLIPRPETEEVMLHFLQQLEDDATIVDIGTGSGVLAITLKCEKPDLNVIATDISLEAMNMARNNAEKHQSQIQFLTGDALKPLINEGIKLNGLISNPPYIDEKDMVTMSPTVTRFEPHQALFADNHGYAIYESIIEDLPHVMEKGSPVVFEIGYNQGEALKSIILNKFPDKKIDIIKDINGHDRIVSFKW”, the protein production is reported as “failed”.
With “MVPLESSTLFGVYGGFTDSMMMRETTTNNQDPSGDTCSVSDPAPGSTDYYNISSSPVKDDGTAPKNDVVCSINVDDNKDKSWLRLGIGPEENTDGSYKLQRCCSKNGSGRENSLELSLFSSSSTAVSSSIDHLPTQPLQLPYHHDQLLTMRGPSLVYNHQLMKPQTLLNRGFSFPSSKPWIPQYMAPFRPSSLSDRDVTNNNSLSRSCCVDEGGAGPSSEFRVLDPPRRPHSGLWFLLQASQFQ” the protein production was “failed”.
For “MVPMASNNLAYIKLRLLSLLVGLGIAALASLIIYAVAYYLFGIYSIGIIFGVFVLVLMMDLLQWFIGPYIVDMVYRAKKADPNRYGNIIAIVEEVAKLNGIRPPTLYISEVSFPNAFAYESPIAGRRIAITRPLLGILNEDELRAVIGHEIGHLKHHDSAVIMAIGLIPTLIFYFAYTTLFAGDRRNGGSAIILALVLMVVSFLFNIMVLSVNRLRESYADANAALTIPNGARNLQTALAKIVRYGSSAKNTAASMLLFANYDMDREDVETLIDKWRTMRVGILSDLFSDHPHPAKRIRLLDKLQDSS”, the protein production was “failed”.
With “MVPPKLKQALELFKSLPKELRSQVLLEYAAKVPPPPPGVELERVHECQTPFFVHADVEGGKVRLYFHVPDEAPTVKAFAGLLREGLEGESPEAVLEVPPGFYRGYGLEEFFTPLRLRGLEAALLRLQAQVRKALTS” the protein production was “not failed”.
In the case of “MVQAWYMDESTADPRKPHRAQPDRPVSLEQLRTLGVLYWKLDADKYENDPELEKIRKMRNYSWMDIITICKDTLPNYEEKIKMFFEEHLHLDEEIRYILEGSGYFDVRDKEDKWIRISMEKGDMITLPAGIYHRFTLDEKNYVKAMRLFVGEPVWTPYNRPADHFDARVQYMSFLEGTA”, the protein production is reported as “not failed”.
With “MVQEIIVDSGDIEFLTTPKEYKQQLLSLIECARQRIFITALYLQDDEAGREILHALYQAKANFPTIEINIFVDFNRGQRGLIGEKASLGNRALYLKLAHEYPHTVNIYGVAVKRKELEHHHHHH” the protein production was “failed”.
With “MVQRITIAPQGPEFSRFVMGYWRLMDWNMSARQLVSFIEEHLDLGVTTVDHADIYGGYQCEAAFGEALKLAPHLRERMEIVSKCGIATTAREENVIGHYITDRDHIIKSAEQSLINLATDHLDLLLIHRPDPLMDADEVADAFKHLHQSGKVRHFGVSNFTPAQFALLQSRLPFTLATNQVEISPVHQPLLLDGTLDQLQQLRVRPMAWSCLGGGRLFNDDYFQPLRDELAVVAEELNAGSIEQVVNAWVLRLPSQPLPIIGSGKIERVRAAVEAETLKMTRQQWFRIRKAALGYDVP” the protein production was “not failed”.
With “MVQTKRYAGLTAANTKKVAMAAPMFSIIIPTLNVAAVLPACLDSIARQTCGDFELVLVDGGSTDETLDIANIFAPNLGERLIIHRDTDQGVYDAMNRGVDLATGTWLLFLGADDSLYEADTLARVAAFIGEHEPSDLVYGDVIMRSTNFRWGGAFDLDRLLFKRNICHQAIFYRRGLFGTIGPYNLRYRVLADWDFNIRCFSNPALVTRYMHVVVASYNEFGGLSNTIVDKEFLKRLPMSTRLGIRLVIVLVRRWPKVISRAMVMRTVISWRRRR” the protein production was “failed”.
